Laboratory results taken from PMC3102065, “The Hexameric Structures of Human Heat Shock Protein 90” (PLoS ONE, 2011).
Where “and” joins values, the source holds several entries; their conditions need not be identical. Equal values may be shown once.

Key:
[1] = biological target: the molecule itself; assay: crystal structure; MC-HSP90 in three crystal forms (C222_1 with cis-DEP, P2_1 with cisplatin, R32 with Silver Bullets No. 18); 2.5 M ammonium sulfate, 0.1 M tri-sodium citrate pH 5.4-5.8; molecular replacement
[2] = biological target: the molecule itself; assay: AUC; sedimentation velocity of fractions from the S-300 column, 0.3 mg/ml in 100 mM Tris-HCl, 45,000 rpm, 20°C, c(s) distribution (SEDFIT)
[3] = biological target: the molecule itself; assay: crystal structure; MC-HSP90-Ct, P6_322 crystal; 2.6 M ammonium sulfate, 0.1 M tri-sodium citrate pH 5.0, Silver Bullets No. 70; molecular replacement

Protein	stoichiometry N [1]	stoichiometry N [2]	stoichiometry N [3]
MC-HSP90 (N-terminal truncated human HSP90α, middle segment and carboxy-terminal domain, residues 293–732) (domain or fragment, two extra Ala residues encoded after the Factor Xa cleavage site; found at the N-terminus by MALDI-MS of the dissolved crystal; human heat shock protein 90α, residues 293-732 (M and C domains), from a full length cDNA (NM_005348.2; 732 residues); In solution a mixture of dimer, tetramer and hexamer; The reverse primer encodes six His after the last residue; also called truncated HSP90; wild-type …) not shown	6	2 and 4	
MC-HSP90-Ct (human HSP90α residues 293–697, C-terminal 35 residues also truncated) (domain or fragment, two extra Ala residues encoded after the Factor Xa cleavage site (same forward primer as MC-HSP90); human heat shock protein 90α, residues 293-697; Purified by a protocol similar to that of MC-HSP90; The reverse primer printed for this construct appears to encode eight His; also called C-terminal tail truncated MC-HSP90-Ct; source: E. coli BL21 (DE3), purified (Ni-NTA, Factor Xa cleavage, second …)) not shown			6
MC-HSP90 W320A (domain or fragment, two extra Ala residues encoded after the Factor Xa cleavage site (made on the plasmid pGEX-6p-1-MC-HSP90); human heat shock protein 90α, residues 293-732, with W320A; also called mutant W320A; mutant protein W320A of MC-HSP90; source: E. coli BL21 (DE3), expressed and purified as the wild-type MC-HSP90; not shown: GST, N-terminal, cleaved) not shown		6 and 2 and 4	
